Results as given in the DeepSol protein solubility set.

experiment: soluble on expression in E. coli; label from the status in PepcDB or PDB records

Row | Sequence | soluble on expression in E. coli
1 | MSTPIIPWMGGKRRLADRLIPLFPPHECYVEVFAGGAALYFMRPQAAPVEVLNDINGDLVNLYRVVQNHLEEFVRQFKWALSSRQVFEWQKMTRPETLTDIQRAARFFYLQHHAFAGKVSGQTFGTATTGPAINLLRIEENLSAAWQRLSGTYVENLPWLECAERYDRPQTFHYMDPPYWQTAGYGVDYPFENYERMADFMRTCKGKVMVSINDHPDIRRVFEEFHFETVDIRYTSSNQRRGRTDVVGELVIMNWEP | not soluble
2 | MSTQMSVFLSTQAAQPQWGEKALISFAEQGATIHLQQTQDFSAIQRAARKLDNQGIRTAFLAGEGWDLESIWAFYQGYRDAKKRNTVEWKALAAAEQVELEARIKATDWTRDIINKSAEEVAPRQLATMAAEFIKSLAPDHVSYRIVKDKDLLTEGWEGIYAVGRGSERTSAMLQLDYNPTGDENAPVFACLVGKGITFDSGGYSLKPSNMMSAMKADMGGSGMITGALGLAIMRGFNKRVKLILCCAENMVSGRALKLGDIITYKNGKTVEIMNTDAEGRLVLADGLIYASEQKPQLIIDCATLTGAAKNALGNDYHALLSYDESLSQQALAAAKEENEALWALPLAEFHREMLPSNFADLSNISNGDYTPGASTAAAFLSYFVEGYQKGWLHFDCSATYRKSASDKWAAGATGMGVKMLARILMQQA | not soluble
3 | MSTQSILTKPTEATAFQPDQVVRILETVLLTTPEPLSISDLKKLFEGNIDKKTLHESLTILSEKWHDSGINLVSVAGGWRFQSKPEMQVFLDRLNPQRPPRYSRAVMETLAIIAYRQPVTRGDIEEIRGVAVSTQIIKTLESRGWIETIGQRDIPGKPYLYATTRHFLDDLNLQSLEQLPSLDSFNSLDLSADEAESVDTDTTTIQESGEPASHEPTQLL | not soluble
4 | MSTRPEVFDLIVIGGGPGGSTLASFVAMRGHRVLLLEREAFPRHQIGESLLPATVHGICAMLGLTDEMKRAGFPIKRGGTFRWGKEPEPWTFGFTRHPDDPYGFAYQVERARFDDMLLRNSERKGVDVRERHEVIDVLFEGERAVGVRYRNTEGVELMAHARFIVDASGNRTRVSQAVGERVYSRFFQNVALYGYFENGKRLPAPRQGNILSAAFQDGWFWYIPLSDTLTSVGAVVSREAAEAIKDGHEAALLRYIDRCPIIKEYLAPATRVTTGDYGEIRIRKDYSYCNTSFWKNGMALVGDAACFVDPVFSSGVHLATYSALLVARAINTCLAGEMSEQRCFEEFERRYRREYGNFYQFLVAFYDMNQDTDSYFWSARKIINTEERANEAFVRLIAGRSNLDEPVFQSVAKDFFTEREGFGAWFGGLVTSMAKGDGGGLMVGEGATDATESTGFAPENFMQGFTREITELQHLAMFGEDRGPETPLWSGGLVPSRDGLAWAVESGEDAAG | soluble
5 | MSTSEDKPEIISRVVHQEGDVEIVDRSQKDKDEEKEEGKGGFLDKVKDFIHDIGEKLEGTIGFGKPTADVSAIHIPKINLERADIVVDVLVKNPNPVPIPLIDVNYLVESDGRKLVSGLIPDAGTLKAHGEETVKIPLTLIYDDIKSTYNDINPGMIIPYRIKVDLIVDVPVLGRLTLPLEKCGEIPIPKKPDVDIEKIKFQKFSLEETVAILHVRLQNMNDFDLGLNDLDCEVWLCDVSIGKAEIADSIKLDKNGSGLINVPMTFRPKDFGSALWDMIRGKGTGYTIKGNIDVDTPFGAMKLPIIKEGGETRLKKEDDDDDDEE | soluble
6 | MSTTAEETPTQALPTQTRTLTGWGRTAPTTAQVLSTPDVEVIARAVAQVAEQNESKPAHLQRGVIARGLGRSYGDPAQNAGGLVIDMNALNRIHRIDRDTHLVEVDAGVNLDQLMKAALPFGLWVPVLPGTRQVTIGGAIGSDIHGKNHHSAGSFGNHVVSLDLLTADGKVRTLTPKGGRNDPKGALFWATIGGMGLTGIILKATIKMTPTETAYFIADGDVTQTLDETIALHSDGSESNYEYSSAWFDAIAAPPKLGRAAISRGSLAKLDQLPAKLQKNPLAFDAPQLLTFPDVFPNGLANKFNFSMIGELWFRKSGTYRDKVQNLTQFYHPLDMFGEWNRAYGSNGFLQYQFVVPTTAVEEFKAIIRDIQKSGHYSFLNVFKLFGEGNQAPLSFPIPGWNICVDFRIKPGLNEFVTELDKRVLKFGGRLYTAKDSRTTAETFHAMYPRIDEWIATRRKYDPTNVFASDMSRRLEL | not soluble
7 | MSTTDKQVAIVGVGPRGISILERIAAALNTVSRPKQGLTIHLIEDAQMGAGNVWRTDQTRTLCMNTLAGAVTLFTEPGSTVSAPVVEGPLQFDWIRLLRGDEDLSGIPTKAIELFRTYPPAASVAEDFKEELAATVIQSNPSRALYGAYLRWAFDVALQLLPQWVKVEQHHARAIGIREDGDRDVITLDNSEMISADSTVLAVGWQTPAPNAEELSIAAALEENPDLVWVKPGNPVEQDASLIPAGEQVLVRGLGMGFFDIMALTTIDRGGIFHEDPSTRSGLRYEASGEEPHFVISSGRGYPYLPKSDYKSLPPGAKLARLKAVIAAINAQNRGVASINYDAEVWPAVARDAYEAYYETLDRVSPESIRTGLDKIVEIIDEVDVDKLPKALAAHTDDVFDLHAWEFPLAGINESVEALTARIADGMARDIRHAVTAWDSPLKSALWSISAARKPSSILGAEGRLTFESRRNRFAAVMAIGQMVGSGPPLFRTRELLALVDAGLAHFAGARPRLSVSDGQWQISSPTTGDTPLRSKVLVDAWMHNP | not soluble
8 | MSTTGSAPLNLREWTAPEKLLPNGSPLVPVDARGADWHGIELGELDLRGAKLCRCDLRGTDLSHCQLDGADLRLARYDSQTVVPVGFDLSNSGAVGPGAKLNGVYLNSSDLRGMDLRGSMLLGSYLSGADLSGAILDGVSLAGSDLRSSTMRGAMCRGTRFGTCELDMADLRGANLEGAVLETVESIRGADFSLCTGLGAQIDALLSRSVAELDCWNPLTRSTTRDSLESLRAARSD | not soluble
9 | MSTTGSAPPNSKLKSVEDTDDDRTLAEDDQNDQNSGSMDHRFERIKVTLMMTQGKKFGLGIVSVHQRILVCKVENESLVAGVLKYGDQIIEINKKNVLNKIDCKKRLMQCLKDKGQVDIIIVRPKTADAVTMIEQEIQLSQQPSTTAQPKIN | not soluble
10 | MSTVIKGGTIVTADLTYKADVKVEGGRIVEIGPNLSGAETLDATGCYVMPGGIDPHTHLEMPFMGTYSSDDFESGTRAALAGGTTMVVDFALPSPGQSLLEALTMWDNKSTRANCDYSFHMAITWWGEQVFNEMETIVKDKGINTFKHFMAYKGALMVDDDEMFSSFQRCAALGALPLVHAENGDVVAQLQAKLLAEGNSGPEAHAYSRPAEVEGEAANRAIMIADMAGCPVYIVHTSCEQAHEAIRRARAKGMRVFGEPLIQHLTLDETEYFDKDWDHAARRVMSPPFRNKLHQDSLWAGLASGSLQVVATDHCAFTTEQKRFGVGDFTRIPNGTGGLEDRMPMLWTYGVATGRITMNEFVAVTSTNIAKILNIYPKKGAILVGADADLVVWDPKRSKTISAKTQQSAIDYNVFEGKTVTGLPRFTLTRGVVSIEEGTVKTQEGHGEFVRRDPFPAVSTALSTWKEVTAPRAVQRSGIPASGVHHHHHH | soluble
11 | MSVDETITFSLAVKNTGNREGQEIVQLYIRDIKSSLPRPVKELKRFKKVNLMPGEEKIVSLSIDKEALSFFDAERHEWICEPGKFEAIIAASAMDIKDVLKFELKLEHHHHHH | not soluble
12 | MSVDYPRDLIGYGSNPPHPHWPGKARIALSFVLNYEEGGERNILHGDKESEAFLSEMVSAQPLQGERNMSMESLYEYGSRAGVWRILKLFKAFDIPLTIFAVAMAAQRHPDVIRAMVAAGHEICSHGYRWIDYQYMDEAQEREHMLEAIRILTELTGERPLGWYTGRTGPNTRRLVMEEGGFLYDCDTYDDDLPYWEPNNPTGKPHLVIPYTLDTNDMRFTQVQGFNKGDDFFEYLKDAFDVLYAEGAEAPKMLSIGLHCRLIGRPARLAALQRFIEYAKSHEQVWFTRRVDIARHWHATHPYTGAAK | soluble
13 | MSVEKIPGYTYGETENRAPFNLEDLKLLKEAVMFTAEDEEYIQKAGEVLEDQVEEILDTWYGFVGSHPHLLYYFTSPDGTPNEKYLAAVRKRFSRWILDTSNRSYDQAWLDYQYEIGLRHHRTKKNQTDNVESVPNIGYRYLVAFIYPITATMKPFLARKGHTPEEVEKMYQAWFKATTLQVALWSYPYVKYGDF | soluble
14 | MSVIIISRNQEKLDRAAKKIELNTGGKVKVIAADFTKDDIYGHITENIEGLDIGVLVNNVGILPSQIPCKLLETSDLEERIYDIVNCNVKSMVKMCRIVLPGMQQRRRGVILNVSSGIAKIPCPIYTLYAASKVFVERFSQGLQAEYISKGIIIQTVAPFGVSTAMTGHQKPDMVTFTAEEFVRSSLKYLKTGDQTYGSITHTLLGRIVQSIPTWVLQSETFQHHFQEYVKNRDRR | not soluble
15 | MSVKPVDLNKLRSTHENLYETVVAISKKAREIQEEERAELEERLLPYKEMIRNPASESESEKVFPEQIAISVAFECREKPTQQALAQYLDHQYDYVLEKSPETKVAQNEDEDESDRD | not soluble
16 | MSVLYIQIRRNQITVRDLESKREVSGDAAFSNQRLLIANFFVAEKVLQDLVLQLHPRSTWHSFLPAKRMDIVVSALEMNEGGLSQVEERILHEVVAGATLMKYRQFHIHAQSAVLSDSAVMAMLKQK | soluble
17 | MSVSLVVIRLELAEHSPVPAGFGFSAAAGEMSDEEIKKTTLASAVACLEGKSPGEKVAIIHQHLGRREMTDVIIETMKSNPDELKTTVEERKSSEASPTAQRSKDHSKECINAAPDSPSKQLPDQISFFSGNPSVEIVHGIMHLYKTNKMTSLKEDVRRSAMLCILTVPAAMTSHDLMKFVAPFNEVIEQMKIIRDSTPNQYMVLIKFRAQADADSFYMTCNGRQFNSIEDDVCQLVYVERAEVLKSEDGASLPVMDLTELPKCTVCLERMDESVNGILTTLCNHSFHSQCLQRWDDTTCPVCRYCQTPEPVEENKCFECGVQENLWICLICGHIGCGRYVSRHAYKHFEETQHTYAMQLTNHRVWDYAGDNYVHRLVASKTDGKIVQYECEGDTCQEEKIDALQLEYSYLLTSQLESQRIYWENKIVRIEKDTAEEINNMKTKFKETIEKCDNLEHKLNDLLKEKQSVERKCTQLNTKVAKLTNELKEEQEMNKCLRANQVLLQNKLKEEERVLKETCDQKDLQITEIQEQLRDVMFYLETQQKINHLPAETRQEIQEGQINIAMASASSPASSGGSGKLPSRKGRSKRGK | soluble
18 | MSVTVEQEAYEMPADNKKVMLKIEEVHLHSCGVFSNVYKGILREPYEKKIAIKKSWPEKGERNFEFIFLTGRERAKHKNVIHMIFAFSHSYDTKVCESYVFDFMPNTLAEVIRQKLTDLDIRLYTWQIFSGLKYLEEHKVVHRDLKPVNILVDHDTAFLKISDFGSAKIIVKGKANNFYQVTRFYRPPELLMKAMEYNSTVDVWSAGCIMAEMVKRHVVFPGRDSAHQLKLYCRCFGAPNEQDISAMKGEKLEKEYWKFTKGFGLQRLVNDISPDQLQFIKRILVYAPEKRLRGKQLLQDDFFRPLFKAGAVRHNGQKISDVITAADYKRAAENEESSACRLAQLVKTDNKDLGIPYCEKSNSYENVYARRSTLIPKEQKMARDNKSKEDSSDDRRVAPSSGEAPSAPGKRSESNKTAAIAKKSTMKSVMNAPPPRQKPE | not soluble
19 | MSVVSERDVDEYSKQKPETYVLQVSERERKEKYERKNPPIPLDNEYNYQDVTPSPFPFHIDAPSLVFMGRLGEEPISAHFTLTNRTCKPFWFKIKVSSRELFKVRPTNGKLENSERVVIRVIFYPNVRVPKPFCEYLHVYALFAGLGDRTAYEAFNRLDRQRTLPPKRLFTEFVWHPNIGMTQAYENGKLMEMMRAKQKLLDYRKDENDKIKTFQVDFNNVIFDHRNRVLDRMLKANVVEKEKLLYMPTPNLNLYMQNLRNQKNRSKLAVLLERRGDAFKGVQNLYAEEVLAKRTGDKMFEKYKKKKGTKGYQSLDAKLYRPVKVVRNTKNKKKKGKK | not soluble
